Measured values: PMC6001950

Target: human S100A9 protein (human) (UniProt P06702)
Experiment: other fluorescence titration; intrinsic tryptophan fluorescence of 2 uM S100A9; S100A12 added at 0.4-7 uM; excitation 295 nm, emission read at 345 nm; one binding site model

B1: human S100A12 protein (natural protein)
chain: MTKLEEHLEGIVNIFHQYSVRKGHFDTLSKGELKQLLTKELANTIKNIKDKAVIDEIFQGLDANQDEQVDFQEFISLVAIALKAAHYHTHKE
B1 gave a Kd of 1300 nM.
